Source: the RNAGym collection of RNA variant scans (doi:10.7554/elife.80360)

B1: Hammerhead Ribozyme (parent)
chain: ACCGGAUGUGCUUUCCGGUCUGAUGAGUCCGUGAGGACGAAACAG

Variants of: B1
Experiment: self-cleavage, relative activity (ratio to wild type); higher = more cleavage; co-transcriptional

Point of comparison: ACCGGAUGUGCUUUCCGGUCUGAUGAGUCCGAGAGGUCGAAACAG [U32A A37U], self-cleavage 0.754. Against it:
- ACCGGAUGUGCUUUCCGGUCUGAUGAGUCCGUGAGGACAAAUCAG [G39A A42U] — lower, 0.348
- ACCGGAUGUGCUUUCCGGUCUUAUGAGUCCGUGACGACGAAACAG [G22U G35C] — lower, 0.311
- ACCGGAUGUGGUUUCCGGUCUGAUGAGUGCGUGAGGACGAAACAG [C11G C29G] — higher, 0.82
- ACCGGAUGUGCUUUCCGGUCUGAUCAGUCCGUGAGGAUGAAACAG [G25C C38U] — lower, 0.22
- ACUGGGUGUGCUUUCCGGUCUGAUGAGUCCGUGAGGACGAAACAG [C3U A6G] — lower, 0.747
- ACCGGAUGUGCUUUCCGGUCUGAUGAGUCCGUUAGCACGAAACAG [G33U G36C] — lower, 0.623
- ACCGGAUGUGCUUUGCGGUCUGAUGAGUCCGUGAGGACGAAACCG [C15G A44C] — lower, 0.277
- ACCGGAUGUGCUUUGCGGUCUGAUGAGUCCGUGAGGACGAAACUG [C15G A44U] — lower, 0.408
- ACCGGAUGUGCUUUCCGCUCUGAUGAGUCCGUGAGGACGAAAUAG [G18C C43U] — lower, 0.292
- ACCGGAUGAGCUUUCCGGUCCGAUGAGUCCGUGAGGACGAAACAG [U9A U21C] — lower, 0.649
- ACCGGAUGAGCUUUCCGGUCGGAUGAGUCCGUGAGGACGAAACAG [U9A U21G] — lower, 0.58
- ACCGGAUGUGCUUUCCGGUCUUAUGAGUCCGUGAGGCCGAAACAG [G22U A37C] — lower, 0.3
- ACCGGAUGUGCUUUCCAGUCUGAUGAGUCCGUGAGGACGAAACAG [G17A] — higher, 0.768
- ACCGGAUCUGCUUUCCGGUCUGAUGAGUCCUUGAGGACGAAACAG [G8C G31U] — lower, 0.679
- ACCGGAUGUGCCUUCCGGUCUGAAGAGUCCGUGAGGACGAAACAG [U12C U24A] — higher, 1.04
- ACCGGAUGUGUUUUCCGGUCUGAUGAGUCCGUGACGACGAAACAG [C11U G35C] — lower, 0.588
- ACCAGAUGUGCUUUCCGGUCUGAUGAGUCCGUGAGGACGAAACAG [G4A] — lower, 0.602
- ACCGGAUGUGCAUUCCGGUCUGAUGAGUCCGUGAGGACGGAACAG [U12A A40G] — lower, 0.315
- ACCGGAUGUGUUUUCCGGUCUGAUGAGUUCGUGAGGACGAAACAG [C11U C29U] — higher, 0.897
- ACCGGAUGAGCUUUCCGGUCUGAUGAGUCCGUGAGGACGAACCAG [U9A A42C] — lower, 0.32
- ACCGGACGUGCUUUCCGGUCUGAUGAGGCCGUGAGGACGAAACAG [U7C U28G] — lower, 0.538
- ACCGGAUCUGCUUUCCGGUCUGAUGUGUCCGUGAGGACGAAACAG [G8C A26U] — higher, 0.827
- ACCGGAUGUGCUUUCCGGUGUGACGAGUCCGUGAGGACGAAACAG [C20G U24C] — lower, 0.302
- ACCGGAUGUGCUUUACGUUCUGAUGAGUCCGUGAGGACGAAACAG [C15A G18U] — lower, 0.33
- ACCGGAUGUGCUUUCCGGUCUGUUGAGUCCGUGAGCACGAAACAG [A23U G36C] — lower, 0.327
- ACCGGAUGUGCUGUCCGGUCUGAUGAGGCCGUGAGGACGAAACAG [U13G U28G] — higher, 0.973
- ACCGGAUGUGCUUUCCGGUCUGAUGAACCCGUGAGGACGAAACAG [G27A U28C] — lower, 0.645
- ACCGGAUGUGCUUUCCGGUCUGAUGAGUUCGUGAGGACGUAACAG [C29U A40U] — lower, 0.28
- AACGGAUGUGAUUUCCGGUCUGAUGAGUCCGUGAGGACGAAACAG [C2A C11A] — higher, 0.958
- ACCGGAUGUGCUUGCCGGUCUGAUGAGUCCGUGAGGAGGAAACAG [U14G C38G] — lower, 0.603
- ACCGGAUGUGCUUUCCGGUCUGGUGAGUCCGUGAGGACGCAACAG [A23G A40C] — lower, 0.355
- ACCGGAUGUGCUUUCCAGUCUGAUGAGUCCGUGAGGACGCAACAG [G17A A40C] — lower, 0.347
- ACCGGAUGUGCUUUCCGGUCUGAUGAGUCCGUGAGUCCGAAACAG [G36U A37C] — lower, 0.331
- ACCGGAUGUGCUUUCCGGUCUGAUGAGUCCGUGAGUUCGAAACAG [G36U A37U] — lower, 0.724
- ACCGGAUGUGCUUGCCAGUCUGAUGAGUCCGUGAGGACGAAACAG [U14G G17A] — lower, 0.544
- ACCGGAUGUGCUUUCCGGUCAGAUGAGUCCGUGAGGACGAAACUG [U21A A44U] — lower, 0.283
- AGCGGAUGUGCUUUCCGUUCUGAUGAGUCCGUGAGGACGAAACAG [C2G G18U] — lower, 0.669
- ACCGGAUGUGCUUACCGGUCUGAUGAGUCCGCGAGGACGAAACAG [U14A U32C] — higher, 0.946
- ACCGGAUCUGCUUUCCGGUCUGAUGAGUGCGUGAGGACGAAACAG [G8C C29G] — lower, 0.571
- ACCGGAUGUGCUUUCCGGUCUGAUGAGUUCGUGAGGGCGAAACAG [C29U A37G] — lower, 0.751
- ACCGGAUGUGUUUUCCGGUCUGAUGAGUCCGUGAGGACGCAACAG [C11U A40C] — lower, 0.438
- ACCGGAUGUGCUUUCCGGUCUGAUGACUCCGUCAGGACGAAACAG [G27C G33C] — lower, 0.723
- ACCGGAUGUGGUUUCCGGUCUGGUGAGUCCGUGAGGACGAAACAG [C11G A23G] — lower, 0.282
- ACCGGACGUGCUUUCCGGUCUGAUGAGUCCGUGAGGACGAAACGG [U7C A44G] — higher, 1.13
- ACCGGAUGUUCUUUCCGGUCUGAUGAGUCCGUGAAGACGAAACAG [G10U G35A] — higher, 0.838
- AACGGGUGUGCUUUCCGGUCUGAUGAGUCCGUGAGGACGAAACAG [C2A A6G] — lower, 0.426
- ACCGGAUGUGCUUUCCGGUCUGAUGAGUCAUUGAGGACGAAACAG [C30A G31U] — higher, 1.07
- UCCGGAUGUGCUUUCCGGUCGGAUGAGUCCGUGAGGACGAAACAG [A1U U21G] — lower, 0.303
- ACCGGAUGUGCAUUCCGGUCUGAUGAGUCCGUGAGGACGAAAAAG [U12A C43A] — lower, 0.33
- ACCGGAUGUGCUUUCCGGUCUGAUGAGUCCAUGAGGACGAAACAA [G31A G45A] — higher, 0.934
- ACCGGAUGUGCUUUCCGGUCUGAUGAGUCCAUGAGGACGAAACAC [G31A G45C] — higher, 0.945
- ACCGGAUGUGCUUUCCGGUCUUAUGAGUCAGUGAGGACGAAACAG [G22U C30A] — lower, 0.296
- ACCCGAUGUUCUUUCCGGUCUGAUGAGUCCGUGAGGACGAAACAG [G4C G10U] — lower, 0.722
- ACGGGAUGUGCUUUCCGGUCUGAUGAGUCUGUGAGGACGAAACAG [C3G C30U] — lower, 0.636
- ACCGGAUGUACUUUCCGGUCUGAUGAGACCGUGAGGACGAAACAG [G10A U28A] — higher, 1.12
- AGCGGAUGUGCAUUCCGGUCUGAUGAGUCCGUGAGGACGAAACAG [C2G U12A] — lower, 0.335
